Consider three molecules from PMC10432815.

Assay [1] addresses medaka Opn5m (medaka).
Assay [2] deals with medaka Opn5m (medaka). The source holds these as a separate data set.

On to medaka Gα11c (natural protein), for which the relative aequorin luminescence (calcium response) after UV light, 293TΔGQ cells cotransfected with OlOpn5m and medaka Gα: against OlGαq, OlGα11a and OlGα11b in the assay with medaka Opn5m (medaka) [1] was 24 fold. For the molecule medaka Gα14a (natural protein), the relative aequorin luminescence (calcium response) after UV light, 293TΔGQ cells cotransfected with OlOpn5m and medaka Gα: against OlGαq, OlGα11a and OlGα11b in the assay with medaka Opn5m (medaka) [1] came out at 24 fold.

B1: mouse Gα14 (natural protein)
chain: MAGCCCLSAEEKESQRISAEIERQLRRDKKDARRELKLLLLGTGESGKSTFIKQMRIIHGSGYSDEDRKGFTKLVYQNIFTAMQAMIRAMDTLRIQYMCEQNKENAQIIREVEVDKVTALSRDQVAAIKQLWLDPGIQECYDRRREYQLSDSAKYYLTDIERIAMPSFVPTQQDVLRVRVPTTGIIEYPFDLENIIFRMVDVGGQRSERRKWIHCFESVTSIIFLVALSEYDQVLAECDNENRMEESKALFRTIITYPWFLNSSVILFLNKKDLLEEKIMYSHLISYFPEYTGPKQDVKAARDFILKLYQDQNPDKEKVIYSHFTCATDTENIRFVFAAVKDTILQLNLREFNLV
On to B1, for which, in the assay with medaka Opn5m (medaka) [2], the relative aequorin luminescence (calcium response) after UV light, ATR-reconstituted OlOpn5m in 293TΔGQ cells: mGα14 against mGαq was found to be 27 fold.
